Experiments:
[1] = target: T1, human full length aminopeptidase N (APN, aka CD13) (Homo sapiens, UniProt P15144); assay: Flow cytometry of nanobody phage on HEK293T cells transfected with membrane protein cDNA; assay type: binding; settings: nanobody-expressing phage
T1 construct: expressed in transfected cells; host or cells: HEK293T
Description: (§1) FIGS. 4A-4F are series of images and graphs illustrating the identification of CD13 as a target to kill AML cells by CAR T cells. FIG. 4A: Experiment schema: About 3000 cell membrane protein cDNAs were purified and transfected into HEK293T cells separately, followed by flow analysis with the nanobodies expressing phage and FITC-labeled secondary antibody against phage M13 protein. FIG. 4B: Flow analysis of nanobodies binding to the HEK293T cells with CD13 overexpression. FIG. 4C: CD13 cDNA expression confirmed in HEK293T cells by western blot. FIG. 4D: Western blot to confirm the gRNA/CRISPR guided CD13 knockout effect in THP-1 cells. Three independent gRNAs were transduced into THP-1 separately, followed by puromycin selection and single individual clone expansion. FIG. 4E: Flow analysis of Nb157 or Nb163 binding CD13 knockout THP-1 cells. FIG. 4F: Killing assay of Nbs CAR T cells to the THP-1 wild type (wt) or THP-1 cd13-ko.
To identify the protein antigens of the isolated nanobodies, about 3000 human cell membrane protein cDNAs were prepared and transfected into HEK293T cells individually, followed by flow cytometry detection with the nanobody-expressing phage and FITC-labeled secondary antibody against phage M13 protein (FIG. 4A). […] As a confirmation, human CD13 cDNA expression was also shown by western blot (FIG. 4C). CD13 is preferentially expressed in acute myeloid blast cells.

[2] = test system: Jurkat cells; assay: Flow cytometry binding of nanobodies to Jurkat cells; set-up: species or system human
Description: (§2) FIGS. 1A-1C are series of images and graphs depicting the steps for generating nanobodies that both differentially bind tumor cells and empower CAR T cells to kill the tumor cells. FIG. 1A: Flow chart of AML specific CAR compatible nanobodies in vivo screening. Llama was immunized with AML cell line THP-1. Nanobody library was generated from the llama PMBC including B cells by molecular cloning. Two rounds of conventional cell-based phage display were applied, which took T-ALL cell line Jurkat or chronic myelogenous leukemia (CML) cell line K-562 as negative absorption, followed by one round of count-selection. The resultant THP-1 specific nanobodies were inserted into a chimeric antigen receptor expressing lenti-vector to generate Nb-CAR library. Human primary T cells were transduced by the Nb-CAR library and injected into THP-1 or K562 borne NSG mice to perform the in vivo selection. Nbs that can adapt T cells to enrich in the tumor were PCR-amplified and sequenced. FIG. 1B: 10 million THP-1 cells or 5 million K562 cells were transplanted into NSG mice subcutaneously, followed by treatment of untransduced (UTD) T cells or Nb-lib-CAR T cells. 2 weeks later, Nbs from tumor infiltrated T cells were isolated and identified by PCR amplification. FIG. 1C: Top 5 frequent Nbs in the THP-1 tumor were listed and tested for their recognition to the THP-1 cells, Jurkat cells, or K-562 cells.

[3] = test system: THP-1 cells; assay: Flow cytometry binding of nanobodies to THP-1 cells; set-up: species or system human
Description: as §2, with “FIG. 1B: 10 million THP-1 cells or 5 million K562 cells were transplanted into NSG mice subcutaneously, followed by treatment of untransduced (UTD) T cells or Nb-lib-CAR T cells. 2 weeks later, Nbs from tumor infiltrated T cells were isolated and identified by PCR amplification. FIG. 1C: Top 5 frequent Nbs in the THP-1 tumor were listed and tested for their recognition to the THP-1 cells, Jurkat cells, or K-562 cells.” left out
FIGS. 6A-6H are series of images and graphs depicting that Nb switch-activated CAR T cells eradicate AML in vivo in a controllable manner. […] The engraftment volumes were monitored by measuring the lengths and widths of the tumors. […] The primary leukemia or CAR T cells in the mouse peripheral blood were monitored by staining with CD33 or CD3 fluorescence labeled antibodies.

[4] = test system: CD13 knockout THP-1 cells; assay: Flow analysis of Nb binding to CD13 knockout THP-1 cells; set-up: species or system human; settings: flow cytometry
Description: as §1
To knockout CD13 in THP-1 cell line, LentiCRISPRv2.0 vector was applied according to the protocol (Sanjana, N. E. et al, (2014) Nature methods 11, 783-784). sgRNA targeting human CD13 were listed as below, sgCD13-1 […] (SEQ ID NO: 14), sgCD13-2 […] (SEQ ID NO: 15), […]. Plasmids were confirmed by sequencing and packaged into lentivirus, followed by infecting THP-1 cells. […]

[5] = test system: patient-derived AML cells; assay: Flow analysis of Nb binding to patient derived AML cells; set-up: species or system human; settings: patient AML2844
Method: FIGS. 5A-5B: Both Nb157 and Nb163 recognized the patient derived AML cells by flow analysis. FIGS. 5C-5D: Both Nb157 and Nb163 CAR T cells specifically killed the patient derived AML cells in vitro in a dose dependent manner. […] In brief, 20 million of Patient derived AML cells were injected into NSG mouse, followed by 3 million of Nb157 CAR T cells or UTD T cells treatment. The survival of mice was monitored. Each group n=10. FIGS. 5F-5I: Patient derived AML in NSG bone marrow and spleen were monitored after Nb157 CAR T cell treatment by staining with anti-human CD45/CD3/CD33, followed by flow cytometry analysis. FIGS. 5J-5K: At the end points of each group of experiment, the mice spleens were harvested and fixed by paraformaldehyde, followed by immunofluorescence staining of the anti-human CD3/CD33 and DAPI (Nuclear).
To further determine whether the Nb157 CAR T cells can also kill the patient-derived AML cells, CD13 expression of the leukemia cells from patient AML2844 was examined. […] Thereafter, the therapeutic effect of the CAR T cells on the mice with the patient-derived AML cells was examined. To this end, the NSG mice were transplanted with the primary AML cells, followed by treatment with either control UTD or Nb157 CAR T cells.

[6] = test system: other AML cell lines like HL60, NB4, and U937; assay: Recognition of other AML cell lines by THP-1 specific Nbs; assay type: binding, human
Method: FIG. 7 is series of a table and graphs depicting the affinity test of VHHs against variant of AML cell lines and patient derived AMLs. The four THP-1 specific Nbs were tested for their recognition to other AML cell lines. + was <0.5 log shift, ++ was <1.0 log shift, +++ was <1.5 log shift, − was no binding.

[7] = test system: K562 cells; assay: Flow cytometry binding of nanobodies to K562 cells; set-up: species or system human
Description: as §2

[8] = test system: THP-1 cells; assay: Killing assay of Nb157-PNE-mediated sCAR system; assay type: cell-based, human; settings: sCAR T to THP-1 2:1, 16 hours
Description: FIGS. 6A-6H are series of images and graphs depicting that Nb switch-activated CAR T cells eradicate AML in vivo in a controllable manner. FIGS. 6A-6B: Schematic diagram of switchable CAR T system. The Nb157 was expressed and purified by fusing with PNE, a fourteen amino acid peptide, either at N terminal or C terminal of the Nanobody. Primary human T cells were engineered by lentivirus transduction of scFv CAR that recognized PNE specifically. FIG. 6C: Test the affinity of Nb157, Nb157-N-PNE or Nb157-C-PNE against THP-1 cells by flow cytometry analysis. FIG. 6D: Killing assay of Nb157-PNE-mediated sCAR system against THP-1 cells in series of switch concentrations. The ratio of sCAR T to THP-1 was 2:1 and assay was performed after 16 hours incubation. FIG. 6E: 10 million THP-1 cells were transplanted into NSG mice subcutaneously to form the 150 mm^3 of tumors. […] The engraftment volumes were monitored by measuring the lengths and widths of the tumors. […] The primary leukemia or CAR T cells in the mouse peripheral blood were monitored by staining with CD33 or CD3 fluorescence labeled antibodies.
Killing assays were performed as previously described (Cao, L. F. et al. (2010) Cytometry A 77, 534-545). […] Quantification were calculated by either Countbright beads or volume.

[9] = test system: BON cells; assay: Flow cytometry binding of VLV or VLV-DM1 to BON cells; set-up: species or system human
Method: (§3) Scale bar: […]. […] Scale bar: […].

[10] = test system: QGP1 cells; assay: Flow cytometry binding of VLV or VLV-DM1 to QGP1 cells
Method: as §3

[11] = test system: CD13-/- THP-1 cell lines; assay: Killing assay on THP-1 cd13-ko cells; assay type: cell-based, human; settings: THP-1 cd13-ko vs wild type
Description: as §1
Killing assays were performed as previously described (Cao, L. F. et al. (2010) Cytometry A 77, 534-545). In brief, target cells were labeled by anti-CD33 (BD) for detecting cell number with flow cytometry analysis or labeled by CellTrace Far Red for tracing cell division. Target cells were incubated with effector T cells for 16 hrs at a series of ratios. […] Quantification were calculated by either Countbright beads or volume. […]

T1 sequence (P15144 whole entry): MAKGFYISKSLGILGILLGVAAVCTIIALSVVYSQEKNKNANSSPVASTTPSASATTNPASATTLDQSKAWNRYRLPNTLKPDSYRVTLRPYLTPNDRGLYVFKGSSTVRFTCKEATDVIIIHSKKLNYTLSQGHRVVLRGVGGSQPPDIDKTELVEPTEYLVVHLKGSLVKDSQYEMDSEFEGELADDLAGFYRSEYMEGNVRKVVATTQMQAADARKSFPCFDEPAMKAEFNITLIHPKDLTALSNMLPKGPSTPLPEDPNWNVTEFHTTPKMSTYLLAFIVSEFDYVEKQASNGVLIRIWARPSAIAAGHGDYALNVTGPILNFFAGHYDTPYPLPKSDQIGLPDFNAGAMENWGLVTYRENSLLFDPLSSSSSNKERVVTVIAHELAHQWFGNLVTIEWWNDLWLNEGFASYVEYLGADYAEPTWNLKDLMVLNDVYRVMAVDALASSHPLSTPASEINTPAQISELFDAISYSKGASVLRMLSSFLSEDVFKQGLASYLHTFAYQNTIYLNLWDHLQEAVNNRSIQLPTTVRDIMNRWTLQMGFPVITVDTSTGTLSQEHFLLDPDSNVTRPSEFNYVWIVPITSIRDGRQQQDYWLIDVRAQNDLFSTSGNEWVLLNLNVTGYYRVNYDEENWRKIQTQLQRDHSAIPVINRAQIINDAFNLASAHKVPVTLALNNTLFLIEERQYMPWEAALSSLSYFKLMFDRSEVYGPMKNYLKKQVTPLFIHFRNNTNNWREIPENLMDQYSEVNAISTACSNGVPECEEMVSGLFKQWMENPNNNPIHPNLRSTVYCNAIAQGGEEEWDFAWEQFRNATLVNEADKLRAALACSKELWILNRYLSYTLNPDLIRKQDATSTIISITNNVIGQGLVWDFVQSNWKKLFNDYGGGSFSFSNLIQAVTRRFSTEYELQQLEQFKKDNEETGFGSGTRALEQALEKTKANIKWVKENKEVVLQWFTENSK

Molecule	binding to cells transfected with human CD13 [1]	binding to Jurkat cells [2]	binding to THP-1 cells [3]	binding after CD13 knockout in THP-1 [4]	recognition of patient-derived AML cells [5]	binding to other AML cell lines [6]	binding to K562 cells [7]	switch-triggered killing of THP-1 cells by sCAR T cells [8]	binding to BON cells [9]	binding to QGP1 cells [10]	killing of target cells after CD13 knockout [11]
Nb157: THP-1 specific llama nanobody binding CD13, SEQ ID NO: 19 (protein, VHH157) VHH: AAQAAQVQLQESGGGLVQPGGSLSLSCTASGFTFSSYSMAWVRQAPGKGPEWVSGIYPSDGKTRYADFVKGRFSISRDNAKNMLYLQMNNLEPEDTALYYCARGITGLGPRGQGTQVTVSSAA	bound the cells transfected with human full length aminopeptidase N	but not Jurkat or K562 cells	specifically bound THP-1 cells	CD13 knockout abrogated the binding	detected the CD13 expression on the primary AML cells	also bound other AML cell lines like HL60, NB4, and U937	but not Jurkat or K562 cells	–	–	–	–
Nb157-N-PNE: Nb157 with N-terminal PNE; inducible nanobody switch (protein, left off: small tags and cut ends, Nb157 with N-terminal PNE; inducible nanobody switch) AAQAAQVQLQESGGGLVQPGGSLSLSCTASGFTFSSYSMAWVRQAPGKGPEWVSGIYPSDGKTRYADFVKGRFSISRDNAKNMLYLQMNNLEPEDTALYYCARGITGLGPRGQGTQVTVSSAA	–	–	–	–	–	–	–	slightly reduced the cytolysis-inducing activity	–	–	–
VLV: VHH1 homodimer connected by a linker (protein, left off: small tags and cut ends, VHH1 homodimer connected by a linker) VHH 1: QVQLQESGGGLVQPGGSTRLSCVSSRTFSYYDMGWFRQAPGKEREFVALLSWNGENAEYSDSVMGRFTVSRGNTQNSVNLQMNNLKPEDTGIYYCAVTHGGARSVRSWGQGTQVTVSS VHH 2: QVQLQESGGGLVQPGGSTRLSCVSSRTFSYYDMGWFRQAPGKEREFVALLSWNGENAEYSDSVMGRFTVSRGNTQNSVNLQMNNLKPEDTGIYYCAVTHGGARSVRSWGQGTQVTVSS	–	–	–	–	–	–	–	–	bound to BON cells	but not QGP1 cells	–
Nb163: THP-1 specific llama nanobody binding CD13, SEQ ID NO: 24 (protein, VHH163) VHH: AAQAAQVQLQESGGGLVQPGGSLRLSCVPSGFTFDGYLIGWFRQAPGSERKAVSCISVNGDRTNYADSVKGRFTISRDNAKNTVYLQMNSLRPNDTAIYYCATRRGNRLYNNNCPYFEYGTWGQGTQVTVSSAA	bound the cells transfected with human full length aminopeptidase N	but not Jurkat or K562 cells	specifically bound THP-1 cells	CD13 knockout abrogated the binding	detected the CD13 expression on the primary AML cells	also bound other AML cell lines like HL60, NB4, and U937	but not Jurkat or K562 cells	–	–	–	diminished the killing of Nb163 to the targets significantly, but cannot abrogated the effect completely

Source: patent publication US12410234B2, “Compositions and methods for retrieving tumor-related antibodies and antigens” (THE TRUSTEES OF THE UNIVERSITY OF PENNSYLVANIA, priority 2018, dated 2025)
